We go through one protein from ChEMBL document CHEMBL4402607, “Molecular Basis for Omapatrilat and Sampatrilat Binding to Neprilysin-Implications for Dual Inhibitor Design with Angiotensin-Converting Enzyme” (J Med Chem, 2020).

Substrate in this data set: N=C(N)NCCC[C@H](NC(=O)[C@H](Cc1ccccc1)NC(=O)[C@@H]1CCCN1C(=O)[C@H](CO)NC(=O)[C@H](Cc1ccccc1)NC(=O)CNC(=O)[C@@H]1CCCN1C(=O)[C@@H]1CCCN1C(=O)[C@@H](N)CCCNC(=N)N)C(=O)O
In words: Substrate activity at human ACE expressed in CHO cells by HPLC analysis. In kind it is cell-based.

B1: Angiotensin-converting enzyme (Homo sapiens), P12821 (protein)
chain: MGAASGRRGPGLLLPLPLLLLLPPQPALALDPGLQPGNFSADEAGAQLFAQSYNSSAEQVLFQSVAASWAHDTNITAENARRQEEAALLSQEFAEAWGQKAKELYEPIWQNFTDPQLRRIIGAVRTLGSANLPLAKRQQYNALLSNMSRIYSTAKVCLPNKTATCWSLDPDLTNILASSRSYAMLLFAWEGWHNAAGIPLKPLYEDFTALSNEAYKQDGFTDTGAYWRSWYNSPTFEDDLEHLYQQLEPLYLNLHAFVRRALHRRYGDRYINLRGPIPAHLLGDMWAQSWENIYDMVVPFPDKPNLDVTSTMLQQGWNATHMFRVAEEFFTSLELSPMPPEFWEGSMLEKPADGREVVCHASAWDFYNRKDFRIKQCTRVTMDQLSTVHHEMGHIQYYLQYKDLPVSLRRGANPGFHEAIGDVLALSVSTPEHLHKIGLLDRVTNDTESDINYLLKMALEKIAFLPFGYLVDQWRWGVFSGRTPPSRYNFDWWYLRTKYQGICPPVTRNETHFDAGAKFHVPNVTPYIRYFVSFVLQFQFHEALCKEAGYEGPLHQCDIYRSTKAGAKLRKVLQAGSSRPWQEVLKDMVGLDALDAQPLLKYFQPVTQWLQEQNQQNGEVLGWPEYQWHPPLPDNYPEGIDLVTDEAEASKFVEEYDRTSQVVWNEYAEANWNYNTNITTETSKILLQKNMQIANHTLKYGTQARKFDVNQLQNTTIKRIIKKVQDLERAALPAQELEEYNKILLDMETTYSVATVCHPNGSCLQLEPDLTNVMATSRKYEDLLWAWEGWRDKAGRAILQFYPKYVELINQAARLNGYVDAGDSWRSMYETPSLEQDLERLFQELQPLYLNLHAYVRRALHRHYGAQHINLEGPIPAHLLGNMWAQTWSNIYDLVVPFPSAPSMDTTEAMLKQGWTPRRMFKEADDFFTSLGLLPVPPEFWNKSMLEKPTDGREVVCHASAWDFYNGKDFRIKQCTTVNLEDLVVAHHEMGHIQYFMQYKDLPVALREGANPGFHEAIGDVLALSVSTPKHLHSLNLLSSEGGSDEHDINFLMKMALDKIAFIPFSYLVDQWRWRVFDGSITKENYNQEWWSLRLKYQGLCPPVPRTQGDFDPGAKFHIPSSVPYIRYFVSFIIQFQFHEALCQAAGHTGPLHKCDIYQSKEAGQRLATAMKLGFSRPWPEAMQLITGQPNMSASAMLSYFKPLLDWLRTENELHGEKLGWPQYNWTPNSARSEGPLPDSGRVSFLGLDLDAQQARVGQWLLLFLGIALLVATLGLSQRLFSIRHRSLHRHSHGPQFGSEVELRHS
As a reminder, the Km is the concentration of substrate that gives half-maximal velocity. As for B1, the Km is 0.18 µM.
